Measurements as given in EP3583122A1.
Read-outs that look alike come from different tables or passages of the source.

Tests used:
[1] = biological target: EBOV GP[change] (Ebola virus) (UniProt Q05320)
[2] = biological target: EBOV GP[change] (Ebola virus) (UniProt Q05320); remark: listed apart in the source
[3] = biological target: EBOV GP[change] (Ebola virus) (UniProt Q05320); remark: listed apart in the source
[4] = biological target: EBOV GP[change] (Ebola virus) (UniProt Q05320); remark: listed apart in the source
[5] = biological target: EBOV GP[change] (Ebola virus) (UniProt Q05320); remark: listed apart in the source
[6] = biological target: EBOV GP[change] (Ebola virus) (UniProt Q05320); remark: listed apart in the source
[7] = biological target: EBOV GP[change] (Ebola virus) (UniProt Q05320); remark: listed apart in the source
[8] = biological target: EBOV GP[change] (Ebola virus) (UniProt Q05320); remark: listed apart in the source
[9] = biological target: EBOV GP[change] (Ebola virus) (UniProt Q05320); remark: listed apart in the source
[10] = biological target: EBOV GP[change] (Ebola virus) (UniProt Q05320); remark: listed apart in the source
[11] = biological target: EBOV GP[change] (Ebola virus) (UniProt Q05320); remark: listed apart in the source

EBOV GP[change] (Ebola virus), sequence (Q05320 33-501, chain 1 of 2): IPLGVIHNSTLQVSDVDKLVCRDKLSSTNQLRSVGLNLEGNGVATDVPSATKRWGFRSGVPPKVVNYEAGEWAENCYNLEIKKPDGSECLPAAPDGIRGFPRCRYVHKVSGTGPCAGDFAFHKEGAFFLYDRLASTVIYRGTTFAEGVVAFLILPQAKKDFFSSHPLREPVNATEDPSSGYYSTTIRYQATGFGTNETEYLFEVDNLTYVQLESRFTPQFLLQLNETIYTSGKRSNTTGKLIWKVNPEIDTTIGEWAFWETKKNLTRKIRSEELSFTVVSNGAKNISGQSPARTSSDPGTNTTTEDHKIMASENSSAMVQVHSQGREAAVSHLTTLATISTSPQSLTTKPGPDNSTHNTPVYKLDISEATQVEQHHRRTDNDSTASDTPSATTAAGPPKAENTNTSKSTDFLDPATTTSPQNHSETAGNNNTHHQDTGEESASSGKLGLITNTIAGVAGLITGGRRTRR
EBOV GP[change] (Ebola virus), sequence (Q05320 502-650, chain 2 of 2): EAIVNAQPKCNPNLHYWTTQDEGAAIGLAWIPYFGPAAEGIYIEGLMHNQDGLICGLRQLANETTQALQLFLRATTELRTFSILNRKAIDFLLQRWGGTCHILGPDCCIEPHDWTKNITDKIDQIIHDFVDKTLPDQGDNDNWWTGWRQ

B1: PE-87 H108A (antibody, V domains shown)
VH: QVQLVQSGVTLVQPGGSLRVSCAASGFTFSSYAMSWVRQAPGKGLEWVSAISGLGGSTYYADSVKGRFTISRDNSKNTLYLQMNSLRAEDTAVYYCAKDHRVWAAGYAFDYWGQGALVTVSS
VL: DIVLTQSPSTLSASVGDRVTITCRASQSISSWLAWYQQKPGEAPKLLISDASSLESGVPSRFSGSGSGTEFTLTISSLQPDDFATYYCQQYYSSPTFGGGTKVEIK
With B1 the Kd [1] was 18 nM.

B2: PE-87 H100A (antibody, V domains shown)
VH: QVQLVQSGVTLVQPGGSLRVSCAASGFTFSSYAMSWVRQAPGKGLEWVSAISGLGGSTYYADSVKGRFTISRDNSKNTLYLQMNSLRAEDTAVYYCAKDARVWAAGYHFDYWGQGALVTVSS
VL: DIVLTQSPSTLSASVGDRVTITCRASQSISSWLAWYQQKPGEAPKLLISDASSLESGVPSRFSGSGSGTEFTLTISSLQPDDFATYYCQQYYSSPTFGGGTKVEIK
In the case of B2, the Kd [2] is reported as 4.5 nM.

B3: PE-87 V102A (antibody, V domains shown)
VH: QVQLVQSGVTLVQPGGSLRVSCAASGFTFSSYAMSWVRQAPGKGLEWVSAISGLGGSTYYADSVKGRFTISRDNSKNTLYLQMNSLRAEDTAVYYCAKDHRAWAAGYHFDYWGQGALVTVSS
VL: DIVLTQSPSTLSASVGDRVTITCRASQSISSWLAWYQQKPGEAPKLLISDASSLESGVPSRFSGSGSGTEFTLTISSLQPDDFATYYCQQYYSSPTFGGGTKVEIK
B3 was tested, and the Kd [3] was 4 nM.

B4: PE-87 W103A (antibody, V domains shown)
VH: QVQLVQSGVTLVQPGGSLRVSCAASGFTFSSYAMSWVRQAPGKGLEWVSAISGLGGSTYYADSVKGRFTISRDNSKNTLYLQMNSLRAEDTAVYYCAKDHRVAAAGYHFDYWGQGALVTVSS
VL: DIVLTQSPSTLSASVGDRVTITCRASQSISSWLAWYQQKPGEAPKLLISDASSLESGVPSRFSGSGSGTEFTLTISSLQPDDFATYYCQQYYSSPTFGGGTKVEIK
B4 showed a Kd [4] of 1.3 nM.

B5: PE-87 F109A (antibody, V domains shown)
VH: QVQLVQSGVTLVQPGGSLRVSCAASGFTFSSYAMSWVRQAPGKGLEWVSAISGLGGSTYYADSVKGRFTISRDNSKNTLYLQMNSLRAEDTAVYYCAKDHRVWAAGYHADYWGQGALVTVSS
VL: DIVLTQSPSTLSASVGDRVTITCRASQSISSWLAWYQQKPGEAPKLLISDASSLESGVPSRFSGSGSGTEFTLTISSLQPDDFATYYCQQYYSSPTFGGGTKVEIK
Work on B5 yielded a Kd [5] of 37 nM.

B6: PE-87 R101A (antibody, V domains shown)
VH: QVQLVQSGVTLVQPGGSLRVSCAASGFTFSSYAMSWVRQAPGKGLEWVSAISGLGGSTYYADSVKGRFTISRDNSKNTLYLQMNSLRAEDTAVYYCAKDHAVWAAGYHFDYWGQGALVTVSS
VL: DIVLTQSPSTLSASVGDRVTITCRASQSISSWLAWYQQKPGEAPKLLISDASSLESGVPSRFSGSGSGTEFTLTISSLQPDDFATYYCQQYYSSPTFGGGTKVEIK
With B6 the Kd [6] was 9.4 nM.

B7: PE-87 Y107A (antibody, V domains shown)
VH: QVQLVQSGVTLVQPGGSLRVSCAASGFTFSSYAMSWVRQAPGKGLEWVSAISGLGGSTYYADSVKGRFTISRDNSKNTLYLQMNSLRAEDTAVYYCAKDHRVWAAGAHFDYWGQGALVTVSS
VL: DIVLTQSPSTLSASVGDRVTITCRASQSISSWLAWYQQKPGEAPKLLISDASSLESGVPSRFSGSGSGTEFTLTISSLQPDDFATYYCQQYYSSPTFGGGTKVEIK
In the case of B7, the Kd [7] is reported as 30 nM.

B8: PE-87 G106A (antibody, V domains shown)
VH: QVQLVQSGVTLVQPGGSLRVSCAASGFTFSSYAMSWVRQAPGKGLEWVSAISGLGGSTYYADSVKGRFTISRDNSKNTLYLQMNSLRAEDTAVYYCAKDHRVWAAAYHFDYWGQGALVTVSS
VL: DIVLTQSPSTLSASVGDRVTITCRASQSISSWLAWYQQKPGEAPKLLISDASSLESGVPSRFSGSGSGTEFTLTISSLQPDDFATYYCQQYYSSPTFGGGTKVEIK
B8 showed a Kd [8] of 0.03 nM.

B9: PE-87 Y111A (antibody, V domains shown)
VH: QVQLVQSGVTLVQPGGSLRVSCAASGFTFSSYAMSWVRQAPGKGLEWVSAISGLGGSTYYADSVKGRFTISRDNSKNTLYLQMNSLRAEDTAVYYCAKDHRVWAAGYHFDAWGQGALVTVSS
VL: DIVLTQSPSTLSASVGDRVTITCRASQSISSWLAWYQQKPGEAPKLLISDASSLESGVPSRFSGSGSGTEFTLTISSLQPDDFATYYCQQYYSSPTFGGGTKVEIK
In the case of B9, the Kd [9] is reported as 5.9 nM.

B10: PE-87 D99A (antibody, V domains shown)
VH: QVQLVQSGVTLVQPGGSLRVSCAASGFTFSSYAMSWVRQAPGKGLEWVSAISGLGGSTYYADSVKGRFTISRDNSKNTLYLQMNSLRAEDTAVYYCAKAHRVWAAGYHFDYWGQGALVTVSS
VL: DIVLTQSPSTLSASVGDRVTITCRASQSISSWLAWYQQKPGEAPKLLISDASSLESGVPSRFSGSGSGTEFTLTISSLQPDDFATYYCQQYYSSPTFGGGTKVEIK
With B10 the Kd [10] was 74 nM.

B11: PE-87 D110A (antibody, V domains shown)
VH: QVQLVQSGVTLVQPGGSLRVSCAASGFTFSSYAMSWVRQAPGKGLEWVSAISGLGGSTYYADSVKGRFTISRDNSKNTLYLQMNSLRAEDTAVYYCAKDHRVWAAGYHFAYWGQGALVTVSS
VL: DIVLTQSPSTLSASVGDRVTITCRASQSISSWLAWYQQKPGEAPKLLISDASSLESGVPSRFSGSGSGTEFTLTISSLQPDDFATYYCQQYYSSPTFGGGTKVEIK
B11 showed a Kd [11] of 1.3 nM.
